From paper PMC3839904, “The α-Proteobacteria Wolbachia pipientis Protein Disulfide Machinery Has a Regulatory Mechanism Absent in γ-Proteobacteria” (PLoS ONE, 2013)
Values belong to the compound of their own block, whether it stands above or below them.

What was measured:
[1] = target: Wolbachia pipientis wMel α-DsbB (integral membrane protein) (Wolbachia pipientis wMel)
[2] = target: α-DsbB [SSCC] (the two cysteines of the first periplasmic loop replaced with serines) (Wolbachia pipientis wMel)
[3] = target: Wolbachia pipientis wMel α-DsbB (integral membrane protein) (Wolbachia pipientis wMel); remark: listed apart in the source
[4] = target: Wolbachia pipientis wMel α-DsbB (integral membrane protein) (Wolbachia pipientis wMel); remark: listed apart in the source
[5] = target: Wolbachia pipientis wMel α-DsbB (integral membrane protein) (Wolbachia pipientis wMel); remark: listed apart in the source
[6] = target: T1, α-DsbB (Wolbachia pipientis, UniProt Q73G63); test: UQ1 reduction, absorbance at […] nm; AMS gel shift; assay type: biochemical; details: reduced α-DsbA1 […] as electron donor, pH […] beta-DDM, […]°C
T1 construct: gene WD_1099; full-length integral membrane protein, pET21a (NdeI/XhoI) in E. coli BL21(DE3)pLysS, beta-DDM solubilised, TALON and size exclusion purified
T1 sequence (Q73G63 1-173): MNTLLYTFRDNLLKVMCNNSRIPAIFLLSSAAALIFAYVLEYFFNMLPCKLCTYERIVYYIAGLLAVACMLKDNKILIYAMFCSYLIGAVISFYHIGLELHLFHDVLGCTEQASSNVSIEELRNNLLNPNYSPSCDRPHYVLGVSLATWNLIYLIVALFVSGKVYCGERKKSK

initial rate of oxidation of the peptide substrate (time-resolved fluorescence) by α-DsbA1 with α-DsbB membranes (endogenous UQ), pH 5.5 [1]: 0.00477 min^-1
reverse reaction: gel-shift of the oxidation of reduced α-DsbB [SSCC] by oxidized α-DsbA1, within 15 min (% of α-DsbB [SSCC] oxidized) [2]: 50
initial rate of UQ1 reduction (absorbance at 275 nm) with α-DsbB (50 nM), UQ1 (30 µM) and reduced α-DsbA1 (30 µM), 30°C [3]: 0.236 min⁻¹
Compound: Wolbachia pipientis wMel α-DsbA1 (enzyme)

initial rate of oxidation of the peptide substrate (time-resolved fluorescence) by α-DsbA1CA with wt α-DsbB membranes [4]: 0.00621 min⁻¹
gel-shift (AMS labelling) of the redox state of reduced α-DsbA1CA with α-DsbB and UQ1; oxidised variant against oxidised wt at 30 sec, 2 min, 5 min (3, 2 and 1.3 fold) [5]: 3 fold
initial rate of UQ1 reduction (absorbance at 275 nm) with α-DsbB, UQ1 and reduced α-DsbA1CA, 30°C [3]: 0.463 min⁻¹
Compound: α-DsbA1CA (α-DsbA1 variant with the cysteines of the non-catalytic disulfide replaced with alanine) (enzyme)

Compound: COC1=C(OC)C(=O)C(CC=C(C)C)=C(C)C1=O [UQ1, ubiquinone-1]
UQ1 reduction, absorbance at 275 nm; AMS gel shift [6]: UQ1 reduction was coupled with α-DsbB-mediated oxidation of α-DsbA1
